# Earlier results in article PMC7854602.
# Tests used:
# Cdc42 (inactive) = Cdc42 (inactive) (UniProt P60953)
# Cdc42 (activated) = Cdc42 (activated) (UniProt P60953)
# RhoA (activated) = RhoA (activated) (UniProt P61586)
# RhoA (inactive) = RhoA (inactive) (UniProt P61586)
Kd (Cdc42 (inactive)) [µM],Kd (Cdc42 (activated)) [µM],Kd (RhoA (activated)) [µM],Kd (RhoA (inactive)) [µM],Substance
149,1.8,–,–,Pak3 CBD 60-113 (from UniProt O75914)
–,–,3.9,47,Rhotekin RBD 8-81 (from UniProt Q8C6B2)
